# Molecular target: CD47 on CD47-overexpressing breast cancer cell line MCF-7 (UniProt Q08722)
# Assay: flow cytometry on MCF-7 cells, PE anti-human CD47, 5 µl
# Sequence of CD47 on CD47-overexpressing breast cancer cell line MCF-7 (Q08722 19-323 limits assumed): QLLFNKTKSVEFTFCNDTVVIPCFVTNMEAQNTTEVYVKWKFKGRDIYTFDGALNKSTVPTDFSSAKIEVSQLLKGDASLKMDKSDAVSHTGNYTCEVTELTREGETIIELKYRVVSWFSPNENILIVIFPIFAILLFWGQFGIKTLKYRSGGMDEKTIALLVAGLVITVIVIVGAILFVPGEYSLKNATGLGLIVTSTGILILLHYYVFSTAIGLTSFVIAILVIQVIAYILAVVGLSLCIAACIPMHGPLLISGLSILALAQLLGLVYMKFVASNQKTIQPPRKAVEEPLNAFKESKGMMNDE
Mean,Median,Molecule
11900,11000,"CD47 antibody (Biolegend PE anti-human CD47, cat #323108)"

# Molecular target: T1, CD47 protein (Acrobiosystems, cat #CD7-HA2E9) (UniProt Q08722 19-139)
# T1 construct: Bought recombinant protein coated on the ELISA plate at 100 ng/well; also called CD47 antigen; CD47 peptide
# Assay: ELISA, CD47 protein coated 100 ng/well, 0.8 µg antibody per well
# Protocol: The purified 0.8 μg humanized antibody was treated in each well, and then reacted at room temperature for 2 hours, and then washed 3 times with 1×PBST. Secondary antibody ([…], 1:5,000) was treated and reacted at room temperature for 30 minutes, washed 3 times with 1×PBST, and then treated with TMB for color development and reacted at room temperature for 5 minutes. Finally, the reaction was terminated by treatment with a stop solution of 1 N H₂SO₄, and then the absorbance was measured at 450 nm.
# T1 sequence (Q08722 19-139 limits assumed): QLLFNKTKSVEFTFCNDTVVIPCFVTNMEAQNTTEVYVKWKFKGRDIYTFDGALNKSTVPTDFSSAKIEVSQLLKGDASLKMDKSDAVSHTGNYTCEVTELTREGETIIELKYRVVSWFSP
row,OD450 measurements,Molecule
1,2.81 OD450,"Hu3A5(V10) antibody (antibody, V domains shown, also called humanized 3A5(V10) antibody; humanized Hu3A5(V10) antibody) VH: EVQLVQSGSELKKPGASVKVSCKASGYTFTSYWMHWMRQAPGQGLEWIGVIDPSDSYTSYNQGFTGRFVLSVDTSVSTAYLQISSLKAEDTAVYYCARGGKRAMDYWGQGTTVTVSS VL: DVVMTQSPLSLPVTLGQPASISCRSSQSLVHSNGNTYLHWFQQRPGQSPRLLIYKVSNRFSGVPDRFSGSGSGTDFTLKISRVEAEDVGVYYCSQSTHVPFTFGGGTKLEIK"
2,0.0966 OD450,"Hu3A5(V13) antibody (antibody, V domains shown) VH: QVQLVQSGSELKKPGASVKVSCKASGYTFTSYWMNWVRQAPGQGLEWMGVIDPSDSYTSYNQGFTGRFVFSVDTSVSTAYLQISSLKAEDTAVYYCARGGKRAMDYWGQGTTVTVSS VL: DVVMTQSPLSLPVTLGQPASISCRSSQSLVHSNGNTYLHWFQQRPGQSPRLLIYKVSNRFSGVPDRFSGSGSGTDFTLKISRVEAEDVGVYFCSQSTHVPFTFGGGTKLEIK"
3,0.147 OD450,"Hu3A5(V14) antibody (antibody, V domains shown) VH: QVQLVQSGSELKKPGASVKVSCKASGYTFTSYWMNWVRQAPGQGLEWMGVIDPSDSYTSYNQGFTGRFVFSVDTSVSTAYLQISSLKAEDTAVYYCARGGKRAMDYWGQGTTVTVSS VL: DVVMTQSPLSLPVTLGQPASISCRSSQSLVHSNGNTYLHWFQQRPGQSPRLLIYKVSNRFSGVPDRFSGSGSGTDFTLKISRVEAEDVGVYYCSQSTHVPFTFGGGTKLEIK"
4,2.45 OD450,"Hu3A5 (V8) antibody (antibody, V domains shown) VH: QVQLVQSGAEVKKPGASVKVSCKASGYTFTSYWMHWVRQAPGQGLEWMGVIDPSDSYTSYNQKFQGRVTMTVDTSTSTAYMELSSLRSEDTAVYYCARGGKRAMDYWGQGTTVTVSS VL: DVVMTQSPDSLAVSLGERATINCKSSQSLVHSNGNTYLHWYQQKPGQPPKLLIYKVSNRFSGVPDRFSGSGSGTDFTLTISSLQAEDVAVYYCSQSTHVPFTFGGGTKLEIK"
5,0.111 OD450,"Hu3A5(V15) antibody (antibody, V domains shown) VH: QVQLVQSGSELKKPGASVKVSCKASGYTFTSYWMNWVRQAPGQGLEWMGVIDPSDSYTSYNQGFTGRFVFSVDTSVSTAYLQISSLKAEDTAVYYCARGGKRAMDYWGQGTTVTVSS VL: DVVMTQSPDSLAVSLGERATINCKSSQSLVHSNGNTYLHWYQQKPGQPPKLLIYKVSNRFSGVPDRFSGSGSGTDFTLTISSLQAEDVAVYFCSQSTHVPFTFGGGTKLEIK"
6,2.85 OD450,"Hu3A5(V12) antibody (antibody, V domains shown) VH: EVQLVQSGSELKKPGASVKVSCKASGYTFTSYWMHWMRQAPGQGLEWIGVIDPSDSYTSYNQGFTGRFVLSVDTSVSTAYLQISSLKAEDTAVYYCARGGKRAMDYWGQGTTVTVSS VL: DVVMTQSPDSLAVSLGERATINCKSSQSLVHSNGNTYLHWYQQKPGQPPKLLIYKVSNRFSGVPDRFSGSGSGTDFTLTISSLQAEDVAVYYCSQSTHVPFTFGGGTKLEIK"
7,0.106 OD450,"Hu3A5(V16) antibody (antibody, V domains shown) VH: QVQLVQSGSELKKPGASVKVSCKASGYTFTSYWMNWVRQAPGQGLEWMGVIDPSDSYTSYNQGFTGRFVFSVDTSVSTAYLQISSLKAEDTAVYYCARGGKRAMDYWGQGTTVTVSS VL: DVVMTQSPDSLAVSLGERATINCKSSQSLVHSNGNTYLHWYQQKPGQPPKLLIYKVSNRFSGVPDRFSGSGSGTDFTLTISSLQAEDVAVYYCSQSTHVPFTFGGGTKLEIK"

# More lines, now with the values behind:
row,Molecule,OD450 measurements
1,"Hu3A5(V1) antibody (antibody, V domains shown) VH: EVQLVQSGAEVKKPGASVKVSCKASGYTFTSYWMHWMRQAPGQGLEWIGVIDPSDSYTSYNQKFQGRVTLTVDTSTSTAYMELSSLRSEDTAVYYCARGGKRAMDYWGQGTTVTVSS VL: DVVMTQSPLSLPVTLGQPASISCRSSQSLVHSNGNTYLHWFQQRPGQSPRLLIYKVSNRFSGVPDRFSGSGSGTDFTLKISRVEAEDVGVYFCSQSTHVPFTFGGGTKLEIK",2.58 OD450
2,"Hu3A5 (V9) antibody (antibody, V domains shown) VH: EVQLVQSGSELKKPGASVKVSCKASGYTFTSYWMHWMRQAPGQGLEWIGVIDPSDSYTSYNQGFTGRFVLSVDTSVSTAYLQISSLKAEDTAVYYCARGGKRAMDYWGQGTTVTVSS VL: DVVMTQSPLSLPVTLGQPASISCRSSQSLVHSNGNTYLHWFQQRPGQSPRLLIYKVSNRFSGVPDRFSGSGSGTDFTLKISRVEAEDVGVYFCSQSTHVPFTFGGGTKLEIK",2.65 OD450
3,"Hu3A5 (V3) antibody (antibody, V domains shown) VH: EVQLVQSGAEVKKPGASVKVSCKASGYTFTSYWMHWMRQAPGQGLEWIGVIDPSDSYTSYNQKFQGRVTLTVDTSTSTAYMELSSLRSEDTAVYYCARGGKRAMDYWGQGTTVTVSS VL: DVVMTQSPDSLAVSLGERATINCKSSQSLVHSNGNTYLHWYQQKPGQPPKLLIYKVSNRFSGVPDRFSGSGSGTDFTLTISSLQAEDVAVYFCSQSTHVPFTFGGGTKLEIK",2.54 OD450
4,"Hu3A5 (V6) antibody (antibody, V domains shown) VH: QVQLVQSGAEVKKPGASVKVSCKASGYTFTSYWMHWVRQAPGQGLEWMGVIDPSDSYTSYNQKFQGRVTMTVDTSTSTAYMELSSLRSEDTAVYYCARGGKRAMDYWGQGTTVTVSS VL: DVVMTQSPLSLPVTLGQPASISCRSSQSLVHSNGNTYLHWFQQRPGQSPRLLIYKVSNRFSGVPDRFSGSGSGTDFTLKISRVEAEDVGVYYCSQSTHVPFTFGGGTKLEIK",2.62 OD450
5,"Hu3A5 (V5) antibody (antibody, V domains shown) VH: QVQLVQSGAEVKKPGASVKVSCKASGYTFTSYWMHWVRQAPGQGLEWMGVIDPSDSYTSYNQKFQGRVTMTVDTSTSTAYMELSSLRSEDTAVYYCARGGKRAMDYWGQGTTVTVSS VL: DVVMTQSPLSLPVTLGQPASISCRSSQSLVHSNGNTYLHWFQQRPGQSPRLLIYKVSNRFSGVPDRFSGSGSGTDFTLKISRVEAEDVGVYFCSQSTHVPFTFGGGTKLEIK",2.57 OD450
6,"Hu3A5 (V2) antibody (antibody, V domains shown) VH: EVQLVQSGAEVKKPGASVKVSCKASGYTFTSYWMHWMRQAPGQGLEWIGVIDPSDSYTSYNQKFQGRVTLTVDTSTSTAYMELSSLRSEDTAVYYCARGGKRAMDYWGQGTTVTVSS VL: DVVMTQSPLSLPVTLGQPASISCRSSQSLVHSNGNTYLHWFQQRPGQSPRLLIYKVSNRFSGVPDRFSGSGSGTDFTLKISRVEAEDVGVYYCSQSTHVPFTFGGGTKLEIK",2.69 OD450
7,"Hu3A5 (V7) antibody (antibody, V domains shown) VH: QVQLVQSGAEVKKPGASVKVSCKASGYTFTSYWMHWVRQAPGQGLEWMGVIDPSDSYTSYNQKFQGRVTMTVDTSTSTAYMELSSLRSEDTAVYYCARGGKRAMDYWGQGTTVTVSS VL: DVVMTQSPDSLAVSLGERATINCKSSQSLVHSNGNTYLHWYQQKPGQPPKLLIYKVSNRFSGVPDRFSGSGSGTDFTLTISSLQAEDVAVYFCSQSTHVPFTFGGGTKLEIK",2.67 OD450
8,"Hu3A5 (V4) antibody (antibody, V domains shown) VH: EVQLVQSGAEVKKPGASVKVSCKASGYTFTSYWMHWMRQAPGQGLEWIGVIDPSDSYTSYNQKFQGRVTLTVDTSTSTAYMELSSLRSEDTAVYYCARGGKRAMDYWGQGTTVTVSS VL: DVVMTQSPDSLAVSLGERATINCKSSQSLVHSNGNTYLHWYQQKPGQPPKLLIYKVSNRFSGVPDRFSGSGSGTDFTLTISSLQAEDVAVYYCSQSTHVPFTFGGGTKLEIK",2.74 OD450
9,"Hu3A5(V11) antibody (antibody, V domains shown) VH: EVQLVQSGSELKKPGASVKVSCKASGYTFTSYWMHWMRQAPGQGLEWIGVIDPSDSYTSYNQGFTGRFVLSVDTSVSTAYLQISSLKAEDTAVYYCARGGKRAMDYWGQGTTVTVSS VL: DVVMTQSPDSLAVSLGERATINCKSSQSLVHSNGNTYLHWYQQKPGQPPKLLIYKVSNRFSGVPDRFSGSGSGTDFTLTISSLQAEDVAVYFCSQSTHVPFTFGGGTKLEIK",2.81 OD450

# Molecular target: CD47 on CD47-overexpressing breast cancer cell line MCF-7 (UniProt Q08722)
# Assay: flow cytometry on MCF-7 cells, secondary antibody alone (background control)
Mean,Median,Molecule
80,73.9,"PE-conjugated goat anti-mouse IgG antibody (Biolegend Inc., cat #405307)"

# From patent publication US20250129155A1 (INNOBATION BIO, published 2025)
